The results in this text go back to US8647868B2, “Compositions and methods for increasing production of recombinant gamma-carboxylated proteins” (Wake Forest University Health Sciences, priority 2005, dated 2014).

In one series the test system is blood clotting activity. As to the kind of experiment: Blood clotting activity (APTT) of purified r-hFIX. Type of series: biochemical, human. Conditions: purified from medium of 200 nM siRNA SMART pool treated (r-hFIX+VKORC1) BHK cells. The protocol: Warfarin sensitive VKOR activity was measured as described (19) by estimating the percent conversion of vitamin K1 2,3-epoxide (Vit.K>O) to vitamin K1. The vitamin and the epoxide were separated on a reversed phase C18 column in 100% methanol and quantified against external standards. VKOR activity was either triggered with 5 mM DTT or 0.32 mM reduced RNAse. Reduced bovine RNAse was prepared according to a modified method originally described by Rupp et al. (20). One hundred mg RNAse was dissolved in 500 μl of 0.2 M Tris-Acetate, 6 M guanidinium hydrochloride, pH 8.0. Seventy-two mg DTT was added and the solution was left at 37° C. for one hour. Then the pH was adjusted to 4.0 with acetic acid and DTT, Tris and guanidinium hydrochloride removed by gel filtration on a column of Sephadex G-25 equilibrated in 0.1 M acetic acid. Prior to chromatography, the column resin and the 0.1 M acetic acid were saturated with N2. The void volume fraction containing reduced RNAse was distributed into sealed 0.75 ml serum flasks filled with N2 which were stored at 4° C. until use. […] Blood clotting activities of purified r-hFIX and plasma hFIX were determined with the Activated Partial Thromboplastin Time (APPT) kit APTT-SP (liquid)-0020006300 from Instrumentation Laboratory, Lexington, Mass. […]

The test system of a further series is γ-carboxylase. The series is described as follows: FLEEL γ-carboxylation in extracted rat liver microsomes triggered by reduced RNAse. The series is classed as biochemical. As to conditions: 40 μM vitamin K1 2,3-epoxide, no DTT. As for the experimental part: Rat liver microsomes extracted of luminal and peripherally bound membrane proteins (see Experimental Procedures) were tested for FLEEL γ-carboxylation when the reaction was triggered by reduced RNAse (black bar) and reduced vitamin K1H2 (shaded bar). When reduced RNAse was used, the test system contained 40 μM vitamin K1 2,3-epoxide as the source of the γ-carboxylase cofactor. No DTT was present in the assays. Each bar represents the average activity of three parallel incubations. Standard deviation is shown on each bar.
For removal of microsomal luminal and peripherally bound membrane proteins, microsomes obtained from 4 g of rat liver were suspended in 8 ml of 100 mM Na2CO3, 1.2 M KCl, 0.025% deoxycholate, pH 11.5 with a Potter Elvehjelm glass homogenizer and centrifuged at 100,000×g for 45 min (14). […]
Warfarin sensitive VKOR activity was measured as described (19) by estimating the percent conversion of vitamin K1 2,3-epoxide (Vit.K>O) to vitamin K1. The vitamin and the epoxide were separated on a reversed phase C18 column in 100% methanol and quantified against external standards. […] Blood clotting activities of purified r-hFIX and plasma hFIX were determined with the Activated Partial Thromboplastin Time (APPT) kit APTT-SP (liquid)-0020006300 from Instrumentation Laboratory, Lexington, Mass. […]

With “r-hFIX: functional recombinant human factor IX purified from medium of engineered BHK cells”, the “specific activity of functional r-hFIX” value with blood clotting activity came to 147 units/mg.

B1: reduced RNAse: bovine ribonuclease B reduced with DTT; used to trigger VKOR activity (protein, UniProt P61823 27-150, looked up)
Ribonuclease pancreatic: KETAAAKFERQHMDSSTSAASSSNYCNQMMKSRNLTKDRCKPVNTFVHESLADVQAVCSQKNVACKNGQTNCYQSYSTMSITDCRETGSSKYPNCAYKTTQANKHIIVACEGNPYVPVHFDASV
modifications: reduced with DTT
As for B1, in the series on γ-carboxylase, the “FLEEL γ-carboxylation triggered by reduced RNAse” value is listed as “to the same extent as chemically reduced vitamin K1H2”.
